Data from patent US7838495B2, “Compositions and methods of use of EPB1, and ErbB3 binding protein” (University of Maryland, Baltimore, priority 2007, dated 2010).

System: MCF-7 cells
Test: HRG-induced MAPK and AKT phosphorylation in MCF-7 transfectants
Assay type: cell-based, human
Details: EBP1 overexpressing MCF-7 cells
Procedure: FIG. 11A-C. Ebp1 affects HRG-induced downstream signaling pathways. Serum starved MCF-7 vector control (CMV) or EBP1 transfected cells (Ebp1) cells were stimulated with HRG (20 ng/ml) for the indicated times. Cells lysates were blotted with antibodies to (A) phosphor MAPK and total MAPK or (B) phospho-Akt or total AKT. Data are representative of three experiments. […] Eight hours after transfection, cells were refed with media with 2% serum and the indicated concentrations of HRG. Growth was assessed by MTT assay 3 days later. Data are representative of two experiments.
2.5. Western blot analysis. Total cell extracts were prepared by direct lysis of cells with lysis buffer [50 mM Tris-HCl (pH 7.4), 1 mM EDTA, 250 mM NaCl, 1% Triton X-100, 0.5 mM DTT, and 1× Complete™ protease inhibitor]. Protein concentrations were measured using a detergent compatible kit (Bio-Rad). Proteins (30 lg per well) were resolved by SDS-PAGE, transferred to PVDF membranes, and immunoblotted as described. […] Images were quantified using IMAGE-J software (NIH). […] Relative cell numbers were determined 4 days later using a Promega Proliferation Reagent as per manufacturer's instructions with absorbance being read at 490 nm using a Dynex plate reader. […] Data were analyzed using a two-tailed Students t-test and a p <0.05 was deemed statistically significant. […]

B1: EBP1: ErbB3 binding protein (SEQ ID NO: 2), AR corepressor, here ectopically expressed in cancer cells by stable transfection of an expression plasmid (protein, listed as Homo sapiens)
chain: MSGEDEQQEQTIAEDLVVTKYKMGGDIANRVLRSLVEASSSGVSVLSLCEKGDAMIMEETGKIFKKEKEMKKGIAFPTSISVNNCVCHFSPLKSDQDYILKEGDLVKIDLGVHVDGFIANVAHTFVVDVAQGTQVTGRKADVIKAAHLCAEAALRLVKPGNQNTQVTEAWNKVAHSFNCTPIEGMLSHQLKQHVIDGEKTIIQNPTDQQKKDHEKAEFEVHEVYAVDVLVSSGEGKAKDAGQRTTIYKRDPSKQYGLKMKTSRAFFSEVERRFDAMPFTLRAFEDEKKARMGVVECAKHELLQPFNVLYEKEGEFVAQFKFTVLLMPNGPMRITSGPFEPDLYKSEMEVQDAELKALLQSSASRKTQKKKKKKASKTAENATSGETLEENEAGD
modifications: FLAG tag
basal MAPK phosphorylation: constitutively phosphorylated
